The results in this text go back to patent US20070042954A1.

This assay concerns the target bact sCRFR2α (mouse soluble CRF receptor type 2α, amino acids 20-143, purified from E. coli) (mouse). The assay can be described thus: radioreceptor assay, displacement of [125I-DTyr0]-astressin from purified sCRFR2α.

pKi: −log10 of the molar value.

For Astressin (peptide), the pKi was 8.00.
